Assay results published in paper PMC4445002, “Efficient inhibition of tumor angiogenesis and growth by a synthetic peptide blocking S100A4-methionine aminopeptidase 2 interaction” (Molecular Therapy. Methods & Clinical Development, 2015).

B1: ECFP-MetAP2: ECFP-tagged full-length MetAP2 expressed in HeLa cells (protein)
chain: AGVEQAASFGGHLNGDLDPDDREEGTSSTAEEAAKKKRRKKKKGKGAVSAVQQELDKESGALVDEVAKQLESQALEEKERDDDDEDGDGDADGATGKKKKKKKKKRGPKVQTDPPSVPICDLYPNGVFPKGQECEYPPTQDGRTAAWRTTSEEKKALDQASEEIWNDFREAAEAHRQVRKYVMSWIKPGMTMIEICEKLEDCSRKLIKENGLNAGLAFPTGCSLNNCAAHYTPNAGDTTVLQYDDICKIDFGTHISGRIIDCAFTVTFNPKYDILLTAVKDATNTGIKCAGIDVRLCDVGEAIQEVMESYEVEIDGKTYQVKPIRNLNGHSIGPYRIHAGKTVPIVKGGEATRMEEGEVYAIETFGSTGKGVVHDDMECSHYMKNFDVGHVPIRLPRTKHLLNVINENFGTLAFCRRWLDRLGESKYLMALKNLCDLGIVDPYPPLCDIKGSYTAQFEHTILLRPTCKEVVSRGDDY
modifications: left off: ECFP, end not stated, kept
notes: ECFP-tagged full-length MetAP2 expressed in HeLa cells
B2: MetAP2(1–229): truncated form of MetAP2, amino acids 1–229, expressed from retrovirus (protein, UniProt P50579 1-229, looked up, fragment)
chain: MAGVEEVAASGSHLNGDLDPDDREEGAASTAEEAAKKKRRKKKKSKGPSAAGEQEPDKESGASVDEVARQLERSALEDKERDEDDEDGDGDGDGATGKKKKKKKKKRGPKVQTDPPSVPICDLYPNGVFPKGQECEYPPTQDGRTAAWRTTSEEKKALDQASEEIWNDFREAAEAHRQVRKYVMSWIKPGMTMIEICEKLEDCSRKLIKENGLNAGLAFPTGCSLNNCA
B3: MetAP2(1–169): truncated MetAP2, amino acids 1–169, control, expressed from retrovirus (protein, UniProt P50579 1-169, looked up, fragment)
chain: MAGVEEVAASGSHLNGDLDPDDREEGAASTAEEAAKKKRRKKKKSKGPSAAGEQEPDKESGASVDEVARQLERSALEDKERDEDDEDGDGDGDGATGKKKKKKKKKRGPKVQTDPPSVPICDLYPNGVFPKGQECEYPPTQDGRTAAWRTTSEEKKALDQASEEIWNDF

Experiments:
S100A4 = assay: FRET acceptor-photobleaching analysis in live HeLa cells; type: binding; conditions: ECFP fusion cotransfected with EYFP-S100A4, acceptor photobleaching, n = 8–11, **P < 0.01, ***P < 0.001
MSS31 cells = assay: DNA synthesis (BrdU uptake ELISA) in retrovirally infected cells; type: cell-based, mouse; conditions: retroviral overexpression, 10% FBS and 10 μmol/l BrdU for 6 hours, OD450
Method: cDNA fragments encoding amino acids 1–169 [MetAP2(1–169)] or 1–229 [MetAP2(1–229)] of MetAP2 were PCR amplified and inserted into the multicloning site (SalI/NotI site) of the pRX-puro vector (Supplementary Figure S1).
DNA synthesis was quantified by measuring bromodeoxyuridine (BrdU) incorporation using the Cell Proliferation ELISA BrdU kit (Roche Applied Science, Penzberg, Upper Bavaria, Germany). MSS31 cells cultured for 24 hours in a medium containing 0.2% serum were stimulated with a medium containing 10% FBS and 10 μmol/l BrdU for 6 hours. The cells were harvested and BrdU uptake was measured according to the manufacturer’s protocol. Briefly, the cells were fixed, denatured, and incubated with the monoclonal anti-BrdU-peroxidase antibody. The immune complexes were then detected by the subsequent reaction with tetramethyl-benzidine. The reaction product was quantified by measuring the absorbance (OD450) using a scanning multiwell spectrophotometer.

Molecule	FRET efficiency with EYFP-S100A4 vs negative controls (S100A4)	serum-induced DNA synthesis (MSS31 cells)
B1	significantly higher than that of the negative controls	
B2		resulted in a marked suppression of serum-induced DNA synthesis
B3		but not MetAP2(1–169), resulted in a marked suppression of serum-induced DNA synthesis
